Laboratory results as given in US20230127047A1, “SELECTIVE GIP RECEPTOR AGONISTS COMPRISING A CHELATING MOIETY FOR IMAGING AND THERAPY PURPOSES” (ANTAROS MEDICAL AB, priority 2020, published 2023).
Where two headings read alike, the source gives them in different places. Where a SMILES comes first, the peptide text is derived from it. Where no end group is shown, it is not given here. [ ]: non-standard residue; d: D form. The star is where a group is joined. DO3A(CH2CH2SO2CH2CH2) = O=C(O)CN1CCN(CCS(=O)(=O)CC*)CCN(CC(=O)O)CCN(CC(=O)O)CC1; DOTA = O=C(O)CN1CCN(CC(=O)O)CCN(CC(=O)*)CCN(CC(=O)O)CC1; Aib = CC(C)(N)C(=O)O

What was measured:
[1] = target: T1, glucagon receptor (hGCGR) (Homo sapiens, UniProt P47871); assay: cAMP response (HTRF) in PSC-HEK-293 cells expressing human glucagon receptor; type: cell-based
T1 construct: expressed in transfected cells
Procedure: (§1) Each vial contained 1.8 ml cells. The vials were slowly frozen to −80° C. in isopropanol, and then transferred in liquid nitrogen for storage.
(§2) Prior to their use, frozen cells were thawed quickly at 37° C. and washed (5 min at 900 rpm) with 20 ml cell buffer (lx HBSS; 20 mM HEPES, with 0.1% BSA).
(§3) For measurement of cAMP generation, 5 μl cells (final 5000 cells/well) and 5 μl of test compound were added to a 384-well plate, followed by incubation for 30 min at room temperature.
(§4) The cAMP generated was determined using a kit from Cisbio Corp. based on HTRF (Homogenous Time Resolved Fluorescence). The cAMP assay was performed according to manufacturer's instructions (Cisbio).
(§5) cAMP content of cells was determined using a kit from Cisbio Corp. (cat. no. 62AM4PEC) based on HTRF (Homogenous Time Resolved Fluorescence). […] Medium was then removed and cells washed with PBS lacking calcium and magnesium, followed by proteinase treatment with accutase (Sigma-Aldrich cat. no. A6964). Detached cells were washed and resuspended in assay buffer (1×HBSS; 20 mM HEPES, 0.1% BSA, 2 mM IBMX) and cellular density determined. They were then diluted to 400000 cells/ml and 25 μl-aliquots dispensed into the wells of 96-well plates. For measurement, 25 μl of test compound in assay buffer was added to the wells, followed by incubation for 30 minutes at room temperature.

[2] = target: human GLP-1 receptor (hGLP-1R) (Homo sapiens, UniProt P43220); assay: cAMP response (HTRF) in PSC-HEK-293 cells expressing human GLP-1 receptor; type: cell-based
Procedure: as §1, §2, §3, §4, §5

[3] = target: T2, human GIP receptor (hGIPR) (Homo sapiens, UniProt P48546); assay: cAMP response (HTRF) in PSC-HEK-293 cells expressing human GIP receptor; type: cell-based; conditions: from EC50 values of Table 5
T2 sequence (P48546 22-466): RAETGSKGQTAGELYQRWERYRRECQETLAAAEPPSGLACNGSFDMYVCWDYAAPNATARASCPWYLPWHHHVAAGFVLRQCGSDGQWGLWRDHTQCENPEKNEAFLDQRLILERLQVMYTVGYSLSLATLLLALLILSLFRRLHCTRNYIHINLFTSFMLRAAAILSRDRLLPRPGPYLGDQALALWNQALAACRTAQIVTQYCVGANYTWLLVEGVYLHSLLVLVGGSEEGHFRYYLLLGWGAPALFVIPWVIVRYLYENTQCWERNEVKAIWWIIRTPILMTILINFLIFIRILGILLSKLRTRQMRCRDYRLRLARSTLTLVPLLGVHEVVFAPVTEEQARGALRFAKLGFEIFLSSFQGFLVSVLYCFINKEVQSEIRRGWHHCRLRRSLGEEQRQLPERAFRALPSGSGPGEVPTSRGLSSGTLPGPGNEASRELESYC
Procedure: as §1, §2, §3, §4, §5

[4] = Plasma stability testing (radio-HPLC) in NHP plasma; type: in vitro ADME, cynomolgus monkey; conditions: for Intact peptide (%): NHP plasma, 37° C.
human GIP receptor [5] = target: T3, human GIP receptor (human, UniProt P48546 22-466); assay: cell-based or functional assay
T3 sequence (looked up): T2 sequence (P48546 22-466)

human glucagon receptor = human glucagon receptor (human, UniProt P47871 26-477); assay: cell-based or functional assay
human GLP-1 receptor = human GLP-1 receptor (human, UniProt P43220 24-463); assay: cell-based or functional assay
human GIP receptor [6] = target: T3, human GIP receptor; assay: [125I]GIP displacement, SPA beads with hGIPR HEK-293 membranes
human GIP receptor [7] = target: T3, human GIP receptor; assay: [125I]GIP displacement IC50, reference GIP(1-30) (SEQ ID NO: 2)
human GIP receptor [8] = target: T3, human GIP receptor; assay: [125I]GIP displacement IC50, reference native GIP (SEQ ID NO: 1)

human glucagon receptor, sequence (P47871 26-477): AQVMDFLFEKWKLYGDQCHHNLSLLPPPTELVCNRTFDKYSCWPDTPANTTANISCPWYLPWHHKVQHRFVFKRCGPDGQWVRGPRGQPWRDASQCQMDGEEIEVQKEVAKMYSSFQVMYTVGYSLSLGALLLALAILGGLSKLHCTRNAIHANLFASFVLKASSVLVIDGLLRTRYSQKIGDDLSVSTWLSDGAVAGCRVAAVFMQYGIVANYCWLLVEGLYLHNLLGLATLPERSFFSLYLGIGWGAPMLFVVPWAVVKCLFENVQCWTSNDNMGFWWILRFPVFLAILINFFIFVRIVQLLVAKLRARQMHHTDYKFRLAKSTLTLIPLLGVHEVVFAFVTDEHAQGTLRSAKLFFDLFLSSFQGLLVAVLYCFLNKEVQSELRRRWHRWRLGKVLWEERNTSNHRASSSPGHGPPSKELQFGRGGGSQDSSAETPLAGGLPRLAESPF
T1 sequence (P47871 26-477): as above
human GLP-1 receptor (hGLP-1R), sequence (P43220 24-463): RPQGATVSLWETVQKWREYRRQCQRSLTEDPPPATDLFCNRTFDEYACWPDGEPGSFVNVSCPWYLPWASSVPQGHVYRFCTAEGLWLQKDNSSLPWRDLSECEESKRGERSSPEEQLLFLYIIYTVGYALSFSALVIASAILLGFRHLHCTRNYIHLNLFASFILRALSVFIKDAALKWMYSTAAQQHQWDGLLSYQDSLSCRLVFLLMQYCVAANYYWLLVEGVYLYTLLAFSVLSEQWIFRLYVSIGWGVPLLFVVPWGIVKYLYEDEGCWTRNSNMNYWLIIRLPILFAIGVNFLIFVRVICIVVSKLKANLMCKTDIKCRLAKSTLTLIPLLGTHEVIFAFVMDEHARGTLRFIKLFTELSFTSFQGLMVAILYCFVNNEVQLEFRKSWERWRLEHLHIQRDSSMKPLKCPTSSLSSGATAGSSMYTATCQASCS

Molecule: CC[C@H](C)[C@H](NC(=O)[C@H](CO)NC(=O)[C@H](Cc1ccc(O)cc1)NC(=O)[C@H](CC(=O)O)NC(=O)[C@H](CO)NC(=O)[C@@H](NC(=O)[C@H](Cc1ccccc1)NC(=O)[C@@H](NC(=O)CNC(=O)[C@H](CCC(=O)O)NC(=O)[C@H](C)NC(=O)[C@@H](N)Cc1ccc(O)cc1)[C@@H](C)O)[C@@H](C)CC)C(=O)N[C@@H](C)C(=O)N[C@@H](CCSC)C(=O)N[C@@H](CC(=O)O)C(=O)N[C@@H](CCCCN)C(=O)N[C@H](C(=O)N[C@@H](Cc1c[nH]cn1)C(=O)N[C@@H](CCC(N)=O)C(=O)N[C@@H](CCC(N)=O)C(=O)N[C@@H](CC(=O)O)C(=O)N[C@@H](Cc1ccccc1)C(=O)N[C@H](C(=O)N[C@@H](CC(N)=O)C(=O)N[C@@H](Cc1c[nH]c2ccccc12)C(=O)N[C@@H](CC(C)C)C(=O)N[C@@H](CC(C)C)C(=O)N[C@@H](C)C(=O)N[C@@H](CCC(N)=O)C(=O)N[C@@H](CCCCN)C(=O)NCC(=O)N[C@@H](CCCCN)C(=O)N[C@@H](CCCCN)C(=O)N[C@@H](CC(N)=O)C(=O)N[C@@H](CC(=O)O)C(=O)N[C@@H](Cc1c[nH]c2ccccc12)C(=O)N[C@@H](CCCCN)C(=O)N[C@@H](Cc1c[nH]cn1)C(=O)N[C@@H](CC(N)=O)C(=O)N[C@H](C(=O)N[C@H](C(=O)N[C@@H](CCC(N)=O)C(=O)O)[C@@H](C)O)[C@@H](C)CC)C(C)C)[C@@H](C)CC [SEQ ID NO: 1, YAEGTFISDYSIAMDKIHQQDFVNWLLAQKGKKNDWKHNITQ-OH]
- EC50 [1]: > 10 nM
- EC50 ([1]; read-out: EC50 hGCGR, 384-well format): > 10 nM

Molecule: CC[C@H](C)[C@H](NC(=O)[C@H](CO)NC(=O)[C@H](Cc1ccc(O)cc1)NC(=O)[C@H](CC(=O)O)NC(=O)[C@H](CO)NC(=O)[C@@H](NC(=O)[C@H](Cc1ccccc1)NC(=O)[C@@H](NC(=O)CNC(=O)[C@H](CCC(=O)O)NC(=O)[C@H](C)NC(=O)[C@@H](N)Cc1ccc(O)cc1)[C@@H](C)O)[C@@H](C)CC)C(=O)N[C@@H](C)C(=O)N[C@@H](CCSC)C(=O)N[C@@H](CC(=O)O)C(=O)N[C@@H](CCCCN)C(=O)N[C@H](C(=O)N[C@@H](Cc1c[nH]cn1)C(=O)N[C@@H](CCC(N)=O)C(=O)N[C@@H](CCC(N)=O)C(=O)N[C@@H](CC(=O)O)C(=O)N[C@@H](Cc1ccccc1)C(=O)N[C@H](C(=O)N[C@@H](CC(N)=O)C(=O)N[C@@H](Cc1c[nH]c2ccccc12)C(=O)N[C@@H](CC(C)C)C(=O)N[C@@H](CC(C)C)C(=O)N[C@@H](C)C(=O)N[C@@H](CCC(N)=O)C(=O)N[C@@H](CCCCN)C(N)=O)C(C)C)[C@@H](C)CC [SEQ ID NO: 2, YAEGTFISDYSIAMDKIHQQDFVNWLLAQK-NH2]
- EC50 [2]: > 10 nM
- EC50 [1]: > 10 nM

Molecule: CC[C@H](C)[C@H](NC(=O)[C@H](CO)NC(=O)[C@H](CC(C)C)NC(=O)[C@H](CC(=O)O)NC(=O)[C@H](CO)NC(=O)[C@@H](NC(=O)[C@H](Cc1ccccc1)NC(=O)[C@@H](NC(=O)CNC(=O)[C@H](CCC(=O)O)NC(=O)C(C)(C)NC(=O)[C@@H](N)Cc1ccc(O)cc1)[C@@H](C)O)[C@@H](C)CC)C(=O)N[C@@H](C)C(=O)N[C@@H](CC(C)C)C(=O)N[C@@H](CC(=O)O)C(=O)N[C@@H](CCCNC(=N)N)C(=O)N[C@H](C(=O)N[C@@H](Cc1c[nH]cn1)C(=O)N[C@@H](CCC(N)=O)C(=O)N[C@@H](CCC(=O)O)C(=O)N[C@@H](CCC(=O)O)C(=O)N[C@@H](Cc1ccccc1)C(=O)N[C@H](C(=O)N[C@@H](CCC(N)=O)C(=O)N[C@@H](Cc1c[nH]c2ccccc12)C(=O)N[C@@H](CC(C)C)C(=O)N[C@@H](CC(C)C)C(=O)N[C@@H](C)C(=O)NCC(=O)NCC(=O)N[C@@H](CSCCS(=O)(=O)CCN1CCN(CC(=O)O)CCN(CC(=O)O)CCN(CC(=O)O)CC1)C(N)=O)[C@@H](C)CC)[C@@H](C)CC [SEQ ID NO: 5, Y-Aib-EGTFISDLSIALDRIHQEEFIQWLLAGGC(VS-DO3A)-NH2] (H-Y[Aib]EGTFISDLSIALDRIHQEEFIQWLLAGGC(DO3A(CH2CH2SO2CH2CH2))-NH2; N-terminus assumed)
- potency (ability to activate the human GIP receptor) compared to native GIP or GIP(1-30) [3]: lower potency
- EC50 [2]: > 10 nM
- EC50 [1]: > 10 nM

Molecule: SEQ ID NOs: 3 (Y[Aib]EGTFISDLSIALDRIHQEEFIEWLLAGGK(DOTA)-NH2)
- potency (ability to activate the human GIP receptor) compared to native GIP or GIP(1-30) [3]: lower potency

Molecule: Y-Aib-EGTFISDLSIALDRIHQEEFIEWLLAGGK(DOTA(Ga))-NH2 (Y[Aib]EGTFISDLSIALDRIHQEEFIEWLLAGGK(DOTA)-NH2; also: Ga (68Ga) complexed in DOTA on Lys31) [SEQ ID NO: 4]
- Intact peptide (%) ([4]; 0 min): 99.5%
- Intact peptide (%) ([4]; 15 min): 98.65%
- Intact peptide (%) ([4]; 45 min): 96.31%
- Intact peptide (%) ([4]; 90 min): 92.98%
- radioactive signal arising from intact peptide ([4]; plasma from NHP, after 90 minutes incubation): > 92%
- potency (ability to activate the human GIP receptor) compared to native GIP or GIP(1-30) [3]: lower potency

Molecule: hGlucagon (from UniProt P01275 53-81) (ligand)
- EC50 hGIP R, cAMP formation (HTRF), 96-well format (human GIP receptor [5]): > 10 nM
- EC50 hGIP R, cAMP formation (HTRF), 384-well format (human GIP receptor [5]): > 10 nM

Molecule: Y[Aib]EGTFISDLSIALDRIHQEEFIEWLLAGGK(DOTA)-NH2 [SEQ ID NO: 3 (GIP(1-30) analog with K(DOTA) at position 31, unloaded)]
- EC50 hGCGR, cAMP formation (HTRF), 96-well format (human glucagon receptor): > 10 nM
- EC50 hGIP R, cAMP formation (HTRF), 96-well format (human GIP receptor [5]): 0.00113 nM
- EC50 hGLP-1 R, cAMP formation (HTRF), 96-well format (human GLP-1 receptor): > 10 nM

Molecule: H-Y[Aib]EGTFISDLSIALDRIHQEEFIEWLLAGGK(DOTA)-NH2 (also: Ga3+ complexed in DOTA on Lys31, also called Ga-S02-GIP-T4) [SEQ ID NO: 4 (GIP(1-30) analog with K(DOTA(Ga)) at position 31)]
- IC50 (human GIP receptor [6]): 0.25 nM
- fold improvement of binding affinity against GIP(1-30) (human GIP receptor [7]): ~5 fold
- fold improvement of binding affinity against native GIP (human GIP receptor [8]): ~12 fold
- EC50 hGCGR, cAMP formation (HTRF), 96-well format (human glucagon receptor): > 10 nM
- EC50 hGIP R, cAMP formation (HTRF), 96-well format (human GIP receptor [5]): 0.00109 nM
- EC50 hGLP-1 R, cAMP formation (HTRF), 96-well format (human GLP-1 receptor): > 10 nM

B1: SEQ ID NO: 5 (GIP(1-30) analog with C(VS-DO3A) at position 31, unloaded) (peptide)
peptide: Y[Aib]EGTFISDLSIALDRIHQEEFIQWLLAGGC(DO3A(CH2CH2SO2CH2CH2))-NH2
notes: Printed: Y-Aib-EGTFISDLSIALDRIHQEEFIQWLLAGGC(VS-DO3A)-NH2
- IC50 (human GIP receptor [6]): 0.22 nM
- fold improvement of binding affinity against GIP(1-30) (human GIP receptor [7]): ~5 fold
- fold improvement of binding affinity against native GIP (human GIP receptor [8]): ~12 fold
- EC50 hGCGR, cAMP formation (HTRF), 384-well format (human glucagon receptor): > 10 nM
- EC50 hGIP R, cAMP formation (HTRF), 384-well format (human GIP receptor [5]): 0.00022 nM
- EC50 hGLP-1 R, cAMP formation (HTRF), 384-well format (human GLP-1 receptor): > 10 nM

Molecule: YAEGTFISDYSIAMDKIHQQDFVNWLLAQKGKKNDWKHNITQ-OH (ligand) [GIP (glucose-dependent insulinotropic polypeptide), SEQ ID NO: 1]
- EC50 hGCGR, cAMP formation (HTRF), 96-well format (human glucagon receptor): > 10 nM
- EC50 hGCGR, cAMP formation (HTRF), 384-well format (human glucagon receptor): > 10 nM

Molecule: YAEGTFISDYSIAMDKIHQQDFVNWLLAQK-NH2 (ligand) [GIP(1-30) amide, SEQ ID NO: 2]
- EC50 hGCGR, cAMP formation (HTRF), 96-well format (human glucagon receptor): > 10 nM
- EC50 hGLP-1 R, cAMP formation (HTRF), 96-well format (human GLP-1 receptor): > 10 nM
